Reference: patent US20240343803A1 (SHANDONG SIMCERE BIOPHARMACEUTICAL, published 2024)

Legend:
[1] = biological target: T1, full-length human TIGIT on CHO-K1 cells (CHO-K1 human TIGIT) (human, UniProt Q495A1 22-244); assay: FACS, CHO-K1 human TIGIT low expression strain
T1 construct: NCBI XP_024309156.1; entry includes the signal peptide; also called high expression strain 1D2; medium expression strain 2D10
T1 sequence: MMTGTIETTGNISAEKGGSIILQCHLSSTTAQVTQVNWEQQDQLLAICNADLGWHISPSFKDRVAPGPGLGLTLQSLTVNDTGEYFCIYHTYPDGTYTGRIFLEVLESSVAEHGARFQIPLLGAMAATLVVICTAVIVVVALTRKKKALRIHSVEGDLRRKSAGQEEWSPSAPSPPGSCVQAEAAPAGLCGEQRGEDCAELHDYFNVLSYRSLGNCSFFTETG
Protocol: (§1) The collected cells were washed once with PBS (Hyclone, Cat NO. SH30256), resuspended to 2×10⁵/50 μL with 1% BSA-PBS. The antibodies were diluted to 80 nM with 1% BSA-PBS (diluted by 3-fold serial dilution for 12 concentration points). The 50 μL cells were then mixed with 50 μL diluted antibodies, and then incubated at 4° C. for 60 minutes. […] After washing twice with PBS, the cell samples were resuspended with 1% BSA-PBS, 100 μL/well and then analyzed by flow cytometry (BD, Canto II).

[2] = biological target: T2, TIGIT on human PBMCs stimulated by SEA (human, UniProt Q495A1 22-244); assay: FACS, SEA-stimulated human PBMCs
T2 construct: whole, on cells
T2 sequence (looked up): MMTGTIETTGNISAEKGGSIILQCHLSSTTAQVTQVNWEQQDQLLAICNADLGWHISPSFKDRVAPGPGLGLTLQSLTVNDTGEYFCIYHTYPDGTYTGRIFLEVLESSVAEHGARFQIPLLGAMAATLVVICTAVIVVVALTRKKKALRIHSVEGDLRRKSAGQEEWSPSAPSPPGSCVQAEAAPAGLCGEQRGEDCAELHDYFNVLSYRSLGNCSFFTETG
Protocol: The fresh human PBMCs (AllCells, PB004-C) were adjusted to a density of 5×10⁵/mL, added with SEA (Toxin Technology, Inc., AT101) to 100 ng/mL, and cultured at 37° C. with 5% CO₂ for 3 days. The cells were collected 3 days later, washed once with PBS (Hyclone, SH30256), added with Fc Block (BD, 564220) and then incubated at 4° C. for 10 minutes. After washing twice with PBS, the PBMCs were resuspended to 2×10⁵/50 μL with 1% BSA-PBS. The humanized antibodies were diluted to 80 nM with 1% BSA-PBS (diluted by 3-fold serial dilution for 12 concentration points). The 50 μL cells were then mixed with 50 μL diluted antibodies, and then incubated at 4° C. for 60 minutes. […] After washing twice with PBS, the cell samples were resuspended with 1% BSA-PBS, 100 µL/well, and then analyzed by flow cytometry (BD, Canto II).

[3] = biological target: T3, full-length cynomolgus monkey TIGIT on CHO-K1 cells (CHO-K1 cynomolgus monkey TIGIT) (cynomolgus monkey); assay: FACS, CHO-K1 cynomolgus monkey TIGIT cells
T3 construct: NCBI XP_015300911.1; also called cynomolgus monkey TIGIT cells
T3 sequence (chain, as listed by the source limits assumed): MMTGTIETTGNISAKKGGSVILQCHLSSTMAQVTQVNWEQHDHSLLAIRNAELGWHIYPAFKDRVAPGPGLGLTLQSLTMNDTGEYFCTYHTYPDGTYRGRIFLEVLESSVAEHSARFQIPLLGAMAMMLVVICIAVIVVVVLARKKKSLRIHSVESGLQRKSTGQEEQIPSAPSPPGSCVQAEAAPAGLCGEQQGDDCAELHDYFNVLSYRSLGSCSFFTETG
Protocol: as §1

[4] = biological target: T1, full-length human TIGIT on CHO-K1 cells …; assay: FACS, CHO-K1 human TIGIT medium expression strain
Protocol: as §1

[5] = biological target: T1, full-length human TIGIT on CHO-K1 cells …; assay: FACS, CHO-K1 human TIGIT high expression strain
Protocol: as §1

[6] = biological target: T1, full-length human TIGIT on CHO-K1 cells …; assay: competition FACS; blocked: Bio-CD155-His binding to CHO-K1 human TIGIT cells
Protocol: The collected cells were washed once with PBS (Hyclone, SH30256), resuspended to 2×10⁵/40 μL with 1% BSA-PBS. The antibodies were diluted to 210 nM with 1% BSA-PBS (diluted by 3-fold serial dilution for 12 concentration points). […] The 40 μL cells were then mixed with 40 μL diluted antibodies and 40 μL diluted Bio-CD155-His, and then incubated at 4° C. for 60 minutes. The cells were washed twice with PBS, resuspended with APC labeled streptavidin (dilution ratio 1:1700, Biolegend, 405243), 100 μL/well, and incubated at 4° C. for 40 minutes. The cell samples were washed twice with PBS, resuspended with 1% BSA-PBS (100 μL/well) and then analyzed by flow cytometry (BD, Canto II).

[7] = biological target: T4, human PVRIG-his (AcroBiosystems, Cat NO. PVG-H52H4) (human, UniProt Q6DKI7 41-171, limits assumed); assay: ELISA, coated human PVRIG-his
T4 construct: treated as the same protein; also called human PVRIG-His protein; Human PVRIG-His, Acro C227P1-9ARF1-T4
T4 sequence (looked up): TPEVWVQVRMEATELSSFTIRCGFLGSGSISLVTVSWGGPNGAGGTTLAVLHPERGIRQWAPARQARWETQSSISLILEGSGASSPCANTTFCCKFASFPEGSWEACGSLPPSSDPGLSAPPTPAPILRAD

[8] = biological target: T5, cynomolgus monkey PVRIG (Novoprotein, Cat NO. C09B) (cynomolgus monkey, UniProt A0A2K5WVV8 41-171); assay: ELISA, coated cynomolgus monkey PVRIG
T5 construct: bought reagent; also called cynomolgus monkey PVRIG recombinant protein
T5 sequence: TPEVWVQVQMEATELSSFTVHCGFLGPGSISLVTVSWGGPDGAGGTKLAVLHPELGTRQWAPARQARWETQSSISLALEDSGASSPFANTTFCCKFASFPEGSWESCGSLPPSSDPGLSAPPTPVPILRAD

[9] = biological target: T6, cynomolgus monkey PVRIG on FlpinCHO-cyno PVRIG cells (cynomolgus monkey, UniProt A0A2K5WVV8 41-322); assay: FACS, FlpinCHO-cyno PVRIG cells
T6 construct: whole, on cells; also called FlpinCHO-cynomolgus monkey PVRIG
T6 sequence: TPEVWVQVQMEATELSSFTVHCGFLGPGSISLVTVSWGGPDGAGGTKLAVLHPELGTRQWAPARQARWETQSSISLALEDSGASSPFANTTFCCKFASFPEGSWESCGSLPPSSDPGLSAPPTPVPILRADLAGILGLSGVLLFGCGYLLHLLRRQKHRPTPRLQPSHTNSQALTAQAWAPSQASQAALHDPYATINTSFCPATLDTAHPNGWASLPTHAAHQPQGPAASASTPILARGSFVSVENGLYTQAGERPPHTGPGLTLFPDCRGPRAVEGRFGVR
Protocol: After discarding the cell culture medium, the cells were rinsed with PBS and digested for 8-10 minutes by adding 1 mL Versene (Gibico, 15040-066). The Ham's F12 (Gibico, 21127-022) complete medium containing 10% FBS was then added to terminate the digestion and acquire cell suspension. After counting with a cell counter (Beckman Coulter, Vi-CELL), an appropriate amount of cell suspension was centrifuged at 350×g to remove the supernatant, washed twice with PBS, stained with Zombie violet (Biolegend, 423114) and incubated at room temperature for 20 minutes. After incubation, the cells were added with staining buffer (2% FBS+PBS) to stop staining, centrifuged at 350×g to remove the supernatant, washed twice and resuspended with staining buffer to a density of 2×10⁶ cells/mL. The cells were plated into a 96-well plate (50 μL of cell suspension per well) for further use. The antibodies were diluted from the highest concentration of 46 nM (two-fold concentration) with staining buffer by 3.3-fold serial dilution. The diluted antibodies were added to the well containing 50 μL of cell suspension. The plate was placed on a microplate shaker at 400 rpm for 1 minute to fully mix the antibodies and cells, and then incubated at 4° C. for 30 minutes. After the incubation, the cells were washed twice with staining buffer (200 μL per well) and centrifuged at 350×g for 5 minutes to discard the supernatant. The PE goat anti-human IgG Fc antibody (ebioscience, 12-4998-82) was diluted 250 times with staining buffer, added into the washed wells (100 μL per well), mixed well, and stained at 4° C. for 30 minutes. After staining, the cells were washed twice with staining buffer, finally resuspended with 200 μL staining buffer and analyzed by flow cytometry (BD, Canto II). […] An antibody binding curve was drawn with concentration of antibodies as the abscissa and the corresponding Mean Fluorescence Intensity (MFI) as the ordinate. The AUC value of the curve was calculated by using a Four Parameter Logistic Fit (GraphPadPrism9). […]

[10] = biological target: T6, cynomolgus monkey PVRIG on …; assay: FACS, FlpinCHO cynomolgus monkey PVRIG cells
Protocol: CHO-K1 stable cells ([…]-61™) transfected with human or cynomolgus monkey PVRIG high expression plasmids were named FlpinCHO-hPVRIG and FlpinCHO-cynoPVRIG. […] After discarding the cell culture medium, the cells were rinsed with PBS and digested for 8-10 minutes by adding 1 mL Versene (Gibico, 15040-066). The Ham's F12 (Gibico, 21127-022) complete medium containing 10% FBS was then added to terminate the digestion and acquire cell suspension. After cell counting, an appropriate amount of cell suspension was centrifuged at 350×g to remove the supernatant, washed twice with PBS, stained with Zombie violet (Biolegend, 423114) and incubated at room temperature for 20 minutes. After incubation, the cells were added with staining buffer (2% FBS+PBS) to stop staining, centrifuged at 350×g to remove the supernatant, washed twice and resuspended with staining buffer to a density of 2×10⁶ cells/mL. The cells were plated into a 96-well plate (50 μL of cell suspension per well) for further use. The antibodies were diluted from the highest concentration of 46 nM (two-fold concentration) with staining buffer by 3.3-fold serial dilution. The diluted antibodies were added to the well containing 50 μL of cell suspension. […] After staining, the cells were washed twice with staining buffer, finally resuspended with 200 μL staining buffer and analyzed by flow cytometry (BD, Canto II).

[11] = biological target: T6, cynomolgus monkey PVRIG on …; assay: FACS, FlpinCHO-cyno PVRIG cells; remark: listed apart in the source

B1: TIGIT-002-H4L3 (antibody, V domains shown)
VH: EVQLQESGPGLVKPSETLSLTCAVSGYSITSDSWNWIRQPPGKKLEYIGYISYSGNTYYNPSLKSRVTISRDTSKNQFSLKLSSVTAADTAVYYCARLDFSNYGGAVDYWGQGTTVTVSS
VL: DIVMTQSPDSLAVSLGERATINCKASQNVRTAVAWYQQKPGQSPKLMIYSASYRYTGVPDRFSGSGSGTDFTLTISSLQAEDVAVYYCQQYYTTPWTFGGGTKVEIK
notes: humanized; 002.VH4 with 002.VL3
EC50 (read off the curve) [1]: ~100 pM | EC50 (read off the curve) [2]: ~60 pM | EC50 (read off the curve) [3]: ~400 pM | EC50 (read off the curve) [4]: ~100 pM | EC50 (read off the curve) [5]: ~200 pM | IC50 (read off the curve) [6]: ~90 pM

B2: TIGIT-005-H2L1d (antibody, V domains shown)
VH: EVQLVQSGAEVKKPGASVKVSCKASGYAFTNYLIEWVRQAPGQRLEWMGVINPGSGGTNYKEKFKGRVTITADKSSSTAYMELSSLRSEDTAVYYCARGEYFFFDYWGQGTTVTVSS
VL: DIVMTQSPDSLAVSLGERATINCKASQHVSNAVAWYQHKPGQSPKLLIYSASYRYTGVPDRFSGSGSGTDFTLTISSLQAEDVAVYYCQQHYNTPHTFGGGTKVEIK
notes: humanized; 005.VH2 with 005.VL1d
EC50 (read off the curve) [1]: ~90 pM | EC50 (read off the curve) [2]: ~90 pM | EC50 (read off the curve) [3]: ~400 pM | EC50 (read off the curve) [4]: ~100 pM | EC50 (read off the curve) [5]: ~200 pM | IC50 (read off the curve) [6]: ~90 pM

B3: COM701-hIgG1 (antibody, V domains shown)
VH: QVQLVQSGAEVKKPGASVKVSCKASGYTFTDYNINWVRQAPGQGLEWMGYIYPYIGGSGYAQKFQGRVTMTRDTSTSTVYMELSSLRSEDTAVYYCAREDKTARNAMDYWGQGTLVTVSS
VL: DIQMTQSPSSLSASVGDRVTITCRVSENIYSNLAWYQQKPGKAPKLLIYEATNLAEGVPSRFSGSGSGTDFTLTISSLQPEDFATYYCQHFWGTPYTFGQGTKLEIK
notes: human IgG1 format by its name
EC50 (read off the curve) [7]: ~60 pM | EC50 (read off the curve) [8]: ~40 pM | EC50 (read off the curve) [9]: ~500 pM | EC50 (read off the curve) [10]: ~500 pM | EC50 (read off the curve) [11]: ~600 pM
